Results on 78 sequences are retold here after the supplement of paper PMC10724198.

± gives the standard deviation of the averaged measurements.
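Also: PSI is a weighted mean of sequencing reads over stability bins, variants kept only with over 10 reads, mCherry proximal and sfGFP distal, peptide attached via GGGS linker.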

The data set relates to Saccharomyces cerevisiae. As to the kind of experiment: protein stability index of tFT-peptide fusion (C-terminal peptide) (PSI (0-1 scale)); higher = more stable (slower turnover). The conditions noted are these: genetic background: wild type; temperature: 30 C. As for the experimental part:
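Multiplexed protein stability (MPS) profiling in S. cerevisiae. Random 12-aa peptides (tFT-X12 library) are fused to the C-terminus of a sfGFP-mCherry tandem fluorescent timer, after mCherry and a GGGS linker. Cells are FACS-sorted into 8 mCherry/sfGFP bins and deep-sequenced. The protein stability index (PSI) is the read-weighted bin average, scaled from 0 (unstable) to 1 (stable). Only peptides with >10 reads are reported; cells were grown at 30 °C in SC-His with glucose.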
The sequence GGVGCLGVFSVG came in with a protein stability index of 0.7 ± 0.013. Next, GGVGGAGGRNRG: 0.674 ± 0.014; GGVGGCARVWPR: 0.654 ± 0.061. Next, GGVGGGAAEGAV: 0.758 ± 0.024. Under GGVGVGRGVCVF stands 0.6187 ± 0.0012; under GGVLLPGFSHLL, 0.7133 ± 0.0068.

The sequence GGVRRSPRAILR came in with a protein stability index of 0.705 ± 0.014. Under GGVSCYVHRRAR stands 0.688 ± 0.06. Under GGVSGEGFSWVG stands 0.66987 ± 0.0004. In turn, GGVVACGLRVAS yielded a protein stability index of 0.62 ± 0.058. Under GGVVGGRAGRGG stands 0.617 ± 0.033; under GGVVGVEWGAVG, 0.626 ± 0.015. Under GGVVRGVWVGRG stands 0.725 ± 0.028. Under GGVYVASQGTFV stands 0.673 ± 0.021; under GGWAGLGAPGVS, 0.697 ± 0.028. Regarding GGWCGGGGAWSG, the protein stability index was determined as 0.6985 ± 0.0027. Under GGWGGGCGACVV stands 0.72 ± 0.073. GGWGGRSGTEGE displayed a protein stability index of 0.686 ± 0.013.

The sequence GGWGPGALEVGT yielded a protein stability index of 0.6578 ± 0.0018.

With GHAPSSCPPPPR, the protein stability index was 0.692 ± 0.062. The sequence GHCFCRLLPLHW came in with a protein stability index of 0.755 ± 0.025. GHCVALGNRVLH showed a protein stability index of 0.665 ± 0.068. Next, GHDWRNPRLVED: 0.645 ± 0.062; GHRAEGMWSGGL: 0.751 ± 0.098. GHRRLGNRWSVG: the protein stability index stood at 0.671 ± 0.035. Next, GIDKTNHKQEKN: 0.691 ± 0.0085; GIGFHSREIGER: 0.66 ± 0.055; GIGGNWAVSRNC: 0.73 ± 0.12. Next, GIGKADSKRERS: 0.652 ± 0.00097. Under GIKKKKKKQDKK stands 0.728 ± 0.076; under GIMPVRENCGVF, 0.6422 ± 0.0048; under GIPYALVTPPFP, 0.7724 ± 0.0077. For GIRKNIDNNEKI, the protein stability index is 0.686 ± 0.03. Next, GITSGRAVGGRA: 0.713 ± 0.011; GIVCGDADMEGG: 0.676 ± 0.051; GKALESLEGQFT: 0.728 ± 0.019.

The sequence GKEGGRERVANE registered a protein stability index of 0.639 ± 0.091. On to GKFTGPLGARSR, for which the protein stability index is 0.658 ± 0.032.

The sequence GKKPNSGKNKKK gave a protein stability index of 0.694 ± 0.049. Under GKMLSRPRKTEN stands 0.711 ± 0.03. Under GKNKSKKEKKEK stands 0.668 ± 0.032; under GKRETQVEEGAR, 0.765 ± 0.11.

Consider GKRYEKVGVEWW, for which the protein stability index was 0.765 ± 0.12. Under GKTQLIKNIQNI stands 0.568 ± 0.023; under GKVCGRAEYPQT, 0.719 ± 0.035. Next, GKYEALGRFSPG: 0.71 ± 0.015; GKYQQGFQKVTR: 0.668 ± 0.025; GLAAGGAVMPPL: 0.7188 ± 0.0064. Next, GLAELKSYDGEG: 0.696 ± 0.034. Sequence GLAQRAIKNRHR yielded a protein stability index of 0.679 ± 0.11. Next, GLARSICRNYGL: 0.706 ± 0.014. Next, GLASLTGVPRCW: 0.723 ± 0.027; GLCACTSFLVSW: 0.697 ± 0.028. As for GLCAVWSGAGRC, the protein stability index was determined as 0.7 ± 0.037.

In the case of GLCSEETPALFY, the protein stability index stood at 0.7173 ± 0.0043.

Sequence GLDDLMPGRVLW showed a protein stability index of 0.666 ± 0.015. Under GLDEGCRGGEEV stands 0.673 ± 0.0092; under GLDNNKCTEKKI, 0.665 ± 0.13. Under GLEPSGLSGGSW stands 0.672 ± 0.041; under GLGEWGGRGVCG, 0.692 ± 0.015; under GLGGRGGAVGEW, 0.67252 ± 0.0004. For GLGVMGVGCVGS, the protein stability index is 0.653 ± 0.054. Next, GLGVVSVWSGGL: 0.703 ± 0.044; GLLGVRVVAGLG: 0.625 ± 0.032; GLMSVRYSGTGV: 0.6743 ± 0.006. GLNTKAQSRIPM had a protein stability index of 0.742 ± 0.018.

Consider GLPPLAMPALSI, for which the protein stability index was found to be 0.72 ± 0.057. With GLPPLLSPVPLR, the protein stability index came out at 0.646 ± 0.057. Under GLPSHPAPPSTN stands 0.657 ± 0.11; under GLPTFLTDSSFW, 0.725 ± 0.039. Under GLPWRRVGGGAG stands 0.644 ± 0.013.

GLRCSRVSFFFW: the protein stability index is 0.64 ± 0.039. Under GLRRWLSTAMRR stands 0.7339 ± 0.0033. GLSALVVCPSWG displayed a protein stability index of 0.65062 ± 0.00034. Next, GLSRYLTCNNLV: 0.674 ± 0.0075; GLSVSGLWGVFG: 0.629 ± 0.2; GLTGAATVPHSA: 0.732 ± 0.013. Next, GLVRGGCGTVGG: 0.774 ± 0.18.
